# Data published in patent US20230144608A1, “CLEAVABLE LINKERS” (Xilio Development, Inc., priority 2021, published 2023).
# Tests used:
# [1] = target: MMP-9 (Homo sapiens, UniProt P14780); test: Cleavage by recombinant protease MMP-9; type: biochemical; details: initial rate, recombinant MMP-9
# Description: (§1) In this example, the peptides library was subjected to cleavage screening by biological matrices, i.e., tumor conditioned media (TCM). The cleavage of the peptides library by plasma was performed for comparison. Each peptide in the library includes a fluorescent mark at one end of its sequence and a quencher on the other end of the sequence. Upon cleavage of the peptide, the quencher is separated from the fluorescent mark, thereby releasing the fluorescent mark. The peptide substrates with the highest ratio of (initial rate of cleavage by tumor conditioned media (TCM) - initial rate of cleavage by plasma) in pmol/min, from cancer patients were identified.
# (§2) The peptides with high ratio of initial rate of cleavage by tumor conditioned media (TCM) to initial rate of cleavage by plasma were further screened using recombinant proteases. The peptide substrates that have high initial rates (uM/h) of cleavage by recombinant proteases were identified (Table 4).
# [2] = target: T1, MMP-7 (Homo sapiens, UniProt P09237); test: Cleavage by recombinant protease MMP-7; type: biochemical; details: initial rate, recombinant MMP-7
# T1 sequence (P09237 95-267): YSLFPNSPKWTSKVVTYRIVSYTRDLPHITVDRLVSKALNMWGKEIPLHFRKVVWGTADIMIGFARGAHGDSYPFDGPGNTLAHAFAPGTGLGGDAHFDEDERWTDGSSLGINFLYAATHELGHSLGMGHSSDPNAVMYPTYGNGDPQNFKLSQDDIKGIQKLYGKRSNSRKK
# Description: as §1, §2
# [3] = target: MMP-8 (Homo sapiens, UniProt P22894); test: Cleavage by recombinant protease MMP-8; type: biochemical; details: initial rate, recombinant MMP-8
# Description: as §1, §2
# [4] = target: CatB (Homo sapiens, UniProt P07858); test: Cleavage by recombinant protease Cathepsin B; type: biochemical; details: initial rate
# Description: as §1, §2
# [5] = target: MMP-14 (Homo sapiens, UniProt P50281); test: Cleavage by recombinant protease MMP-14; type: biochemical; details: initial rate, recombinant MMP-14
# Description: as §1, §2
# [6] = target: T2, MMP-1 (Homo sapiens, UniProt P03956); test: Cleavage by recombinant protease MMP-1; type: biochemical; details: initial rate, recombinant MMP-1
# T2 sequence (P03956 100-469): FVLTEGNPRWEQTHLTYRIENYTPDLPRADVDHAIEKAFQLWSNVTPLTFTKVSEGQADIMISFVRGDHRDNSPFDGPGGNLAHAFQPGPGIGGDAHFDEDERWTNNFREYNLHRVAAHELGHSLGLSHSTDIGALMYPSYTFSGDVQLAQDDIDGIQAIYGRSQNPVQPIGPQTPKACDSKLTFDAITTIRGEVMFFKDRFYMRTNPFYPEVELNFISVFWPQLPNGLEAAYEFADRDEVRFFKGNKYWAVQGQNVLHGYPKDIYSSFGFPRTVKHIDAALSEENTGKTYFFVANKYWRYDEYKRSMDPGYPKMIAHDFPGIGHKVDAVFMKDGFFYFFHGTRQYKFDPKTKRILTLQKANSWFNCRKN
# Description: as §1, §2
# [7] = target: T3, MMP-2 (Homo sapiens, UniProt P08253); test: Cleavage by recombinant protease MMP-2; type: biochemical; details: initial rate, recombinant MMP-2
# T3 sequence (P08253 110-660): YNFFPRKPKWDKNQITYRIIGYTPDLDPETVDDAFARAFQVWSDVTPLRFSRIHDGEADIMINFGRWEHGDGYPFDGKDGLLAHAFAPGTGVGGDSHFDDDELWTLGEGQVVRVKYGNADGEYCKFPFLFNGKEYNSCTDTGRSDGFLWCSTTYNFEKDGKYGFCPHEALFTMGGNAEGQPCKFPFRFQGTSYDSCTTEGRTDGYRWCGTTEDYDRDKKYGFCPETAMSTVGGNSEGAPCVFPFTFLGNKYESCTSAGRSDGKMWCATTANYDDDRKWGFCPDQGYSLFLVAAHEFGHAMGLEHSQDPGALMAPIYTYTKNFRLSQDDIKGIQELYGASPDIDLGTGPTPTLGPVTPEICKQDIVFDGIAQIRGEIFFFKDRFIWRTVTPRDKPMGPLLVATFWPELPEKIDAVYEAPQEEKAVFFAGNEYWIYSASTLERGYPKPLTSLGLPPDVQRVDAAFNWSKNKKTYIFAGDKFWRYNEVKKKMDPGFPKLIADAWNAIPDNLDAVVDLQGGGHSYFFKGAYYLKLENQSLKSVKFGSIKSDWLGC
# Description: as §1, §2
# [8] = tested on: RCC tumor conditioned media (TCM) and plasma; test: Fluorescence-quencher peptide cleavage screening, RCC tumor conditioned media versus plasma; type: biochemical, human; details: RCC patients; fluorophore/quencher-labelled peptide
# Description: as §1
# [9] = target: MMP-10 (Homo sapiens, UniProt P09238); test: Cleavage by recombinant protease MMP-10; type: biochemical; details: initial rate, recombinant MMP-10
# Description: as §1, §2
# [10] = tested on: H&N tumor conditioned media (TCM) and plasma; test: Fluorescence-quencher peptide cleavage screening, H&N tumor conditioned media versus plasma; type: biochemical, human; details: Head and Neck cancer patients; fluorophore/quencher-labelled peptide
# Description: as §1
# [11] = tested on: 'NAT' (Normal Adjacent Tissue) culture supernatant; test: Cleavage of synthetic peptides in NAT culture supernatant (MSP-MS); type: biochemical; details: for Earliest cleaved time point -NAT: NAT culture supernatant, MSP-MS; for NAT + CFZ: cleavage in NAT culture supernatant, carfilzomib (CFZ) in the incubation media, given as fraction x/5
# Description: (§3) Sequences comprising cleavage peptides […] (SEQ ID NO: 1) or […] (SEQ ID NO:2) (shown in bold below) were incubated in either ‘NAT’ (Normal Adjacent Tissue) or ‘RCC’ (Renal Cell Carcinoma) culture supernatants, to test the specificity of each peptide’s cleavage. Carfilzomib (CFZ) is also included in the incubation media as an inhibitor of proteosome, to inhibit false positive cleavage.
# (§4) To this end, peptide sequencing by mass spectrometry was used to identify cleaved fragments produced for the synthetic peptides shown in the table below, using a published technique called multiplexed substrate profiling by mass spectrometry (MSP-MS) (O’Donoghue A.J. et al. Nat Methods. 2012 Nov;9(11):1095-100.) Cleavages were monitored in these reactions over time, and the peptides found to be cleaved in the earliest time points were deemed to be most sensitive to proteolytic activity in the conditioned media samples.
# [12] = tested on: 'RCC' (Renal Cell Carcinoma) culture supernatant; test: Cleavage of synthetic peptides in RCC culture supernatant (MSP-MS); type: biochemical; details: for Earliest cleaved time point -RCC: RCC culture supernatant, MSP-MS; for RCC + CFZ: cleavage in RCC culture supernatant, carfilzomib (CFZ) in the incubation media, given as fraction x/5
# Description: as §3, §4
# [13] = patients who received a 5-minute intravenous (IV) infusion; product label; cited from earlier work
# MMP-9, sequence (P14780 94-707): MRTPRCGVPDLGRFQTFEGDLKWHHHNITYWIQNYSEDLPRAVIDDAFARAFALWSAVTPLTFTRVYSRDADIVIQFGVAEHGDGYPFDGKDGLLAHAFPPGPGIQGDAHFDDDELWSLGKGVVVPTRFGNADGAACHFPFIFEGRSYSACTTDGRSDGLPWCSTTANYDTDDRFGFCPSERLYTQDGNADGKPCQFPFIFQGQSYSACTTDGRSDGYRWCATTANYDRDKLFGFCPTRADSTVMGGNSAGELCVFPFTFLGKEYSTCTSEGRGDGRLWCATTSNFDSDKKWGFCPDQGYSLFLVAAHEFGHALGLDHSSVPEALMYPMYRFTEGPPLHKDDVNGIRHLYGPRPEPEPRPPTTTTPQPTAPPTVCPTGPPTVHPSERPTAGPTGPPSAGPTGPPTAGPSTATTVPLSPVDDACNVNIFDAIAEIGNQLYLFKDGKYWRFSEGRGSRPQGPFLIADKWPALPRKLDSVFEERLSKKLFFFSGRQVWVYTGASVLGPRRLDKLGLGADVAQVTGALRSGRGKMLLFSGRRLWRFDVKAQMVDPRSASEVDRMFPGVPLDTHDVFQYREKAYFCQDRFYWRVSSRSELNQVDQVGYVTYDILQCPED
# MMP-8, sequence (P22894 101-467): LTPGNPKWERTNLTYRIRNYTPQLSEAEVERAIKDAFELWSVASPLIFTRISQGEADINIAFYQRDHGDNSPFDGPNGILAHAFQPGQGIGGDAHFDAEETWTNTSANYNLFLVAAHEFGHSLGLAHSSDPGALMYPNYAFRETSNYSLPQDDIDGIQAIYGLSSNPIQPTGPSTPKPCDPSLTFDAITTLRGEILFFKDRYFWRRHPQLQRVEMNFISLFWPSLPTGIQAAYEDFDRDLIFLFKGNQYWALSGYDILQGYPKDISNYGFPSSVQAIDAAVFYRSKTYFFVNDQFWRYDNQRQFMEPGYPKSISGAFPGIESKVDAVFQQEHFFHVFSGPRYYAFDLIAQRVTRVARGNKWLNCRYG
# MMP-10, sequence (P09238 99-476): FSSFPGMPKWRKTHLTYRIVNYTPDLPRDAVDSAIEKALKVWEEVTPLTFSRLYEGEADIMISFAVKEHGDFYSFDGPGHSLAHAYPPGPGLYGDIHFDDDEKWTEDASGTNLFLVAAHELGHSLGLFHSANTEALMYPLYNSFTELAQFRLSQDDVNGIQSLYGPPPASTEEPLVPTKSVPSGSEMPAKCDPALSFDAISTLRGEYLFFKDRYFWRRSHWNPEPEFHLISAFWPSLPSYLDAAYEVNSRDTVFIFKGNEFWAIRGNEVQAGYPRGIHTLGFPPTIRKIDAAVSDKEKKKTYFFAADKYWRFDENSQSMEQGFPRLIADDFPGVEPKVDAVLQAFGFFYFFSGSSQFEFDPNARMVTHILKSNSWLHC
Substance,"Rates of cleavage by recombinant proteases, MMP-9 [1] [µM/h]","Rates of cleavage by recombinant proteases, MMP-7 [2] [µM/h]","Rates of cleavage by recombinant proteases, MMP-8 [3] [µM/h]","Rates of cleavage by recombinant proteases, CatB [4] [µM/h]","Rates of cleavage by recombinant proteases, MMP-14 [5] [µM/h]","Rates of cleavage by recombinant proteases, MMP-1 [6] [µM/h]","Rates of cleavage by recombinant proteases, MMP-2 [7] [µM/h]",Initial cleavage rate in tumor conditioned media minus initial cleavage rate in plasma [8] [pmol/min],"Rates of cleavage by recombinant proteases, MMP-10 [9] [µM/h]","Initial cleavage rate difference, tumor conditioned media minus plasma [10] [pmol/min]",Earliest cleaved time point -NAT [11] [min],NAT + CFZ [11],Earliest cleaved time point -RCC [12] [min],RCC + CFZ [12],half-life [13] [min]
"APAGLIVPYN [proteolytically cleavable peptide (CP), protease substrate]",1.8,2.4,0.5,1.0,2.1,0.0,29.6,0.2,1.6,0.1,–,–,–,–,–
"IVGRPRHQGV [proteolytically cleavable peptide (CP), protease substrate]",0.0,0.0,0.0,1.9,0.0,0.0,0.0,0.6,0.0,0.1,–,–,–,–,–
"PANLVAPDP [proteolytically cleavable peptide (CP), protease substrate]",8.8,2.5,7.2,0.0,0.7,2.7,31.2,0.1,1.8,0.4,–,–,–,–,–
"PVSLRSGS [proteolytically cleavable peptide (CP), protease substrate]",6.5,0.2,0.1,0.0,0.0,0.0,1.9,0.2,0.0,0.0,–,–,–,–,–
"RPLALWRS [proteolytically cleavable peptide (CP), protease substrate]",0.2,0.2,0.2,0.3,0.0,0.1,1.1,0.5,0.0,0.0,–,–,–,–,–
"RQGGM*PKDLYHA*SAKQ (RQGGMPKDLYHASAKQ) [Alu-XT-091, * indicates cleavage site]",–,–,–,–,–,–,–,–,–,–,5,1/5,15,5/5,–
"RSKYLATA [proteolytically cleavable peptide (CP), protease substrate]",0.0,0.0,0.0,1.9,0.0,0.0,0.0,0.3,0.0,0.0,–,–,–,–,–
"RVGPVSL*R*SGSGKI (RVGPVSLRSGSGKI) [Alu-XT-019, * indicates cleavage site]",–,–,–,–,–,–,–,–,–,–,5,1/5,15,5/5,–
"TQKPLGLS [proteolytically cleavable peptide (CP), protease substrate]",0.3,1.8,0.1,0.3,0.1,0.0,11.8,0.2,0.0,0.2,–,–,–,–,–
aldesleukin,–,–,–,–,–,–,–,–,–,–,–,–,–,–,85
